This is an account of results in patent publication US8846861 (dated 2014).

Non-standard residues stand in square brackets, D forms with d. No end group written: not given here. ANA = not defined here

The target of experiment [1] is T1, carcino-embryonic antigen (CEA) (human, UniProt P06731 35-685).
T1 construct: whole, on cells; The legends print the cell line as CCI-229; also called surface protein CEA; CEA surface antigen
T1 sequence (looked up): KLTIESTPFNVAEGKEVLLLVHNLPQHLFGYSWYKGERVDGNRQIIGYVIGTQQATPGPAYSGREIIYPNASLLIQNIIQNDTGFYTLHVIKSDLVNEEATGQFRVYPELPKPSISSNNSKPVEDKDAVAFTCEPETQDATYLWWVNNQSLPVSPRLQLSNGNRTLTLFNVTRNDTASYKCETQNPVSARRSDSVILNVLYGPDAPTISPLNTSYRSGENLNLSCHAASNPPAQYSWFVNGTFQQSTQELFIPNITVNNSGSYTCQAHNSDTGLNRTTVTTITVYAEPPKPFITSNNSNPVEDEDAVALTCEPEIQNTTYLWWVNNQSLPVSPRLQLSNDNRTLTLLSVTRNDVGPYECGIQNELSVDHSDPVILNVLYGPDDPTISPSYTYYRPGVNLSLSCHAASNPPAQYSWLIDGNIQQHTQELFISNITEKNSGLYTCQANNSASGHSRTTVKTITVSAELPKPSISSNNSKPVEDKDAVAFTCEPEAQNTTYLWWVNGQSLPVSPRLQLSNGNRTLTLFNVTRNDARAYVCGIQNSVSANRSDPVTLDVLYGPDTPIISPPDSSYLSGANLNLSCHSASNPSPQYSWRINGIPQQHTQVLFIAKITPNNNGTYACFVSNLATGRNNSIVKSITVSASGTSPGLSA
Briefly: flow cytometry on CCL 229 (LoVo) CEA expressing cells. How it is done: A study to look at antibodies generated in sheep to CEA and the ScFv anti CEA-CPG2 Fusion protein was carried out with analysis using flow cytometry. Measurement by Flow Cytometry of Binding Capability of scFv Anti-CEA-CPG2 Using CEA Expressing Cells. Materials: Cells Lines: CRL 1573—control cell line, CCL 229 (LoVo)—CEA expressing cell line Antibodies/Conjugates: CPG2-PE (Phycoerythrin), CPG2 100 U/ml 1:100 dilution of 100 U conjugated ScFv anti-CEA-CPG2-PE UCL, 40-50 U/ml, 0.71 mg/ml protein 2.5 µg/ml in buffer containing BSA Sheep anti-CEA-PE, CF 1110-PE; Stock at 670 µg/ml. Mouse anti human CEA UCL at 3.9 mg/ml 2.5 µg/ml in buffer containing BSA Goat anti-Mouse-PE Southern Biotech 1050-09 L2806-XH69Z kappa chain specific at 0.25 mg/ml used at 1 µg/ml 4.5 ml polystyrene tubes, PBS azide, BSA, PBS+0.5% Formaldehyde (Polysciences #18814), Propidium Iodine (Orpegen at 100 mg/ml) Centrifuge Eppendorf 5810R set to 250G, 5 mins, 4° C. Coulter XL flow cytometer Method: Cultured cells were both used at 2×10^5 cells per tube, cells in tubes were prepared to contain the following 1. Nothing added, auto fluorescence tested 2. Propidium Iodine at a final concentration of 10 µg/ml 3. CPG2-PE 4. ScFv anti CEA-CPG2-PE 5. Sheep anti CEA-PE 6. Mouse anti CEA/anti Mouse-PE Cells were spun down and 100 µl of antibody solution was added to respective tube. […]
(Flow cytometry measures light scatter and fluorescence of single cells or particles in a stream.)

Experiment [2] has as its target ScFv anti CEA-CPG2 fusion protein (Pseudomonas, UniProt P06621 23-415). The experiment is described as follows: cell-based or functional assay.

B1: CPG2-PE (Phycoerythrin) (enzyme, Pseudomonas, UniProt P06621 23-415, looked up)
chain: ALAQKRDNVLFQAATDEQPAVIKTLEKLVNIETGTGDAEGIAAAGNFLEAELKNLGFTVTRSKSAGLVVGDNIVGKIKGRGGKNLLLMSHMDTVYLKGILAKAPFRVEGDKAYGPGIADDKGGNAVILHTLKLLKEYGVRDYGTITVLFNTDEEKGSFGSRDLIQEEAKLADYVLSFEPTSAGDEKLSLGTSGIAYVQVNITGKASHAGAAPELGVNALVEASDLVLRTMNIDDKAKNLRFNWTIAKAGNVSNIIPASATLNADVRYARNEDFDAAMKTLEERAQQKKLPEADVKVIVTRGRPAFNAGEGGKKLVDKAVAYYKEAGGTLGVEERTGGGTDAAYAALSGKPVIESLGLPGFGYHSDKAEYVDISAIPRRLYMAARLIMDLGAGK
modifications: conjugated to phycoerythrin (PE)
notes: PE-labelled enzyme without the scFv, used as a control in flow cytometry; also called CPG2 control; carboxypeptidase G2
Turning to B1, the binding result in experiment [1] is “no binding (tested: CPG2 100 U/ml 1:100 dilution)”.

Consider [ANA]-Glu (reading uncertain; also: printed as ANA-Glu) [CP006], for which the “IC50, inhibition assay of CPG2 activity (methotrexate hydrolysis)” value in experiment [2] was found to be 88.5 µM.
